Drawing on patent US20250270327A1, this text covers Peptide quantity (min. copies per cell) (copies per cell) for 5 molecules.

“And” between values parts separate entries of the source, which are not always exact repeats. Equal entries are not always repeated. Where two headings read alike, the source gives them in different places.

Test [1] concerns the target HLA-E*01 on THP1 and U937 cells (human). Put plainly: mass spectrometry of peptide recovered from immunopurified HLA-E, U937 cells.
For test [2] the target is unchanged. Put plainly: mass spectrometry of peptide recovered from immunopurified HLA-E, THP1 cells.
For test [3] the target is unchanged.
Test [4] addresses HLA-A*02 on THP1 and U937 cells.

Take VMAPRTLVL (modifications not checked) [peptide … (from the HLA-A*02:01 gene)]: the Peptide quantity (min. copies per cell) (copies per cell) in test [1] turned out to be 586; in test [2], 155.
On to RLPAKAPLL (modifications not checked) [peptide … from Mycobacterium tuberculosis enoyl-ACP reductase (inhA)], for which the Peptide quantity (min. copies per cell) (copies per cell) in test [3] is 52 and 22.
With VMAPRTLIL (modifications not checked) [peptide … (from the HLA-C*03:03 gene in THP1, the HLA-C*01:02 gene in U937)], the results for the Peptide quantity (min. copies per cell) (copies per cell) in test [1] and in test [2] were 877 and 70, respectively.
The molecule VMAPRTLLL (modifications not checked) [peptide … (from the HLA-A*03:01 and HLA-A*31:01 genes)] registered a Peptide quantity (min. copies per cell) (copies per cell) in test [3] of 302.
For the molecule VMAPRALLL (modifications not checked) [peptide … (from the HLA-C*07:01 gene)], the Peptide quantity (min. copies per cell) (copies per cell) turned out to be 35 in test [3] and 0 in test [4].
